± gives the uncertainty stated by the source.
test: amyloid nucleation score (Sup35N fusion, yeast selection) (log enrichment); library NNK2; higher = more nucleation; inactive = no reads after selection
Outline: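 The nucleation score equals the log enrichment of output over input reads from DiMSum, centred on the mode score of non-aggregating sequences. It was computed only for sequences with 100 or more input reads. The reads came from Illumina sequencing of plasmid inserts from psi-negative yeast expressing Sup35N fused to peptides of 20 random codons, induced with 100 μM copper sulfate for 24 hours and grown 7 days at 30°C without adenine and uracil.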

Row | Substance | amyloid nucleation score
1 | VSDACRLDYLLAHILELGSM | -1.08 ± 0.78
2 | CSYPNTLNCELMGILCYVGN | 6.47 ± 0.024
3 | SFSRYF | -1.58 ± 0.75
4 | LFLGLFKLCNLASFMLWSWF | -0.627 ± 1
5 | FNTRMSIKSGNMTWSNYYWF | 5.771 ± 0.053
6 | CHIGN | inactive
7 | TGQKFT | -0.615 ± 0.41
8 | SVQFRMIQDLRVAADGRPRA | 5.545 ± 0.05
9 | RLSLGLYINALRC | 1.01 ± 0.51
10 | DDDRPDEAYEYDVSGF | -1.03 ± 0.54
11 | YYWGAGTQHGYLFTFVGGND | -0.326 ± 1
12 | MSPYL | 0.479 ± 0.8
13 | KLYKCQRQCPALAKVTYGYK | 0.332 ± 0.27
14 | VREGSNRVSRFHNGWHQSGL | -0.555 ± 0.79
15 | NTHFFVMRVEFGPWYTSSCS | 2.42 ± 0.21
16 | ICETGMGSKVGHEPVTAQ | 0.598 ± 0.57
17 | HLYRSCVNKLL | -0.833 ± 1.1
18 | HRMAPMGVISGNVLLPLSVW | inactive
19 | GDHVVFNWRAHSSSRIVSSY | 1.17 ± 0.68
20 | SMLRY | 0.171 ± 0.6
21 | WATFRPD | 0.31 ± 0.54
22 | RFYIPLSYFMSEGDRSCKFI | -0.642 ± 0.61

Row | Substance | amyloid nucleation score
23 | NNLATPRQRVWLQVTLPARP | 0.692 ± 0.21
24 | RNVACFSAVT | -0.283 ± 0.63
25 | DVLGLSGACFGITERVDRLA | 2.32 ± 0.1
26 | DVHFCNNLLLKRRRGSVVA | -0.153 ± 0.41
27 | NDTSYGAQRRVCSTFQGCVT | 0.211 ± 0.32
28 | AFWKVRLYRRPG | 1.76 ± 0.24
29 | FRGIPCLCHVIM | 5.81 ± 0.081
30 | HFTYGSSFIL | 3.53 ± 0.069
31 | YISVKMRSGRTSTLSDCVKA | 3.83 ± 0.076
32 | VINTEVCIEGGRQVRPAPRL | 1 ± 0.41
33 | SIKGGSIEIEMYELESWVQL | -0.791 ± 1.1
34 | VIGASRRVWHRLKHKA | 0.994 ± 0.34
35 | RIRCIVGSVPCMAASKHDGR | 0.783 ± 0.22
36 | YYACNKAND | -0.607 ± 1
37 | GTSWTVTID | 0.537 ± 0.18
38 | VVYPCFSIMLQMEVLYIVFI | 1.33 ± 0.33
39 | DLIYGGYST | inactive
40 | VYTTLPYSFGGYNCYMSSRL | inactive
41 | ENLKCEPLGRVRLKDHVYVV | 0.228 ± 0.27
42 | VGRCTINFIRLRDWVRLRQN | -0.082 ± 0.6
43 | RTGRPSHDFRYGKQRFMVRP | 0.736 ± 0.74
44 | FCIPYGGLIDTA | -1.52 ± 0.41

Row | Substance | amyloid nucleation score
45 | GVIWTRAVANCIVLSGMS | -0.149 ± 0.55
46 | RGMTRVVFTVMLLRLWYSQS | 0.659 ± 0.21
47 | NDMVRAISRKGIVSIHRRTR | 0.724 ± 0.45
48 | CLPGSH | 0.535 ± 0.74
49 | ACSYANLLVTLLNSPEMPVE | 0.306 ± 0.5
50 | CWNKEGRFTRVTMEHASRRA | 0.973 ± 0.48
51 | ISNGYPVDRHSWVNILSLT | 1.23 ± 0.47
52 | LTATLAFLVSCFYCSL | 6.95 ± 0.028
53 | LNSMTILLSN | 0.54 ± 0.56
54 | PRWRDRVVNMKSDLDGV | 5.51 ± 0.073
55 | DIIVVQCIVSVMCTMRASRS | 5.897 ± 0.051
56 | RHKFAMMACVTYNGDVGVMT | 1.14 ± 0.21
57 | LPGQGIWWHICIEG | 1.24 ± 0.14
58 | ASAGCTTGTLGGPHHRHMIV | 0.523 ± 0.26
59 | RSPCIWLWFLNAACHKCVLM | 0.752 ± 0.43
60 | HFETGGIS | 0.447 ± 0.57
61 | LWIIPQELGLCLMCGVVCCV | -1.41 ± 0.75
62 | RPAFTNLRQCQRAYPVGGRC | 0.195 ± 0.53
63 | HSFVNNEKASQMSSCETGGS | -0.509 ± 0.41
64 | VIVVRNQRKFVTSDLPLKVC | 1.04 ± 0.35
65 | LDYDKNKFWAQHLYSKQSSL | 0.805 ± 0.23
66 | WLYDPSIMWNIGWVSNMMHQ | -0.454 ± 0.24

Row | Substance | amyloid nucleation score
67 | CLQFLSRYRVWPSHSFWGEY | 3.68 ± 0.07
68 | CFCLPSNSNI | 1.19 ± 0.09
69 | FYLRGHACDSSWSNLVVGLW | 4.8 ± 0.083
70 | SWSCMTRW | 5.464 ± 0.049
71 | DSSGFCMMVYYIQ | -0.365 ± 0.76
72 | VFNWVRISPR | 8.81 ± 0.07
73 | HTTDFIVLMVRSDASIRLWS | 4.1 ± 0.077
74 | YGSSGK | -0.362 ± 0.38
75 | FAAHCFDFMIHVPMGPAENK | 3.69 ± 0.13
76 | SFSNTAAYAKEYCRSYWVLV | inactive
77 | PCHFVCDCTRMASTTVIHV | 0.01 ± 0.45
78 | LWFGTIHNNTVGSNIDFTFT | 4.71 ± 0.092
79 | NHMLL | -0.313 ± 0.76
80 | PIFNMSTPNFLSSPESRLLV | inactive
81 | MVVGIAVYRCSFNRTDLFPS | 0.655 ± 0.2
82 | FLFQWLLEKPYFYPAFCKCK | 4.49 ± 0.061
83 | LILLY | -0.277 ± 1
84 | GWTKLFGVHDSGIGCPNGVL | inactive
85 | CIINNKIQVAVKNDYLDHRE | 4.69 ± 0.1
86 | ILGQAGMILFNKLAPRGALR | inactive
